Molecular target: human endoglin (human) (UniProt P17813)
Assay: cell-based or functional assay

Sequence of UniProt P17813 (P17813 26-658): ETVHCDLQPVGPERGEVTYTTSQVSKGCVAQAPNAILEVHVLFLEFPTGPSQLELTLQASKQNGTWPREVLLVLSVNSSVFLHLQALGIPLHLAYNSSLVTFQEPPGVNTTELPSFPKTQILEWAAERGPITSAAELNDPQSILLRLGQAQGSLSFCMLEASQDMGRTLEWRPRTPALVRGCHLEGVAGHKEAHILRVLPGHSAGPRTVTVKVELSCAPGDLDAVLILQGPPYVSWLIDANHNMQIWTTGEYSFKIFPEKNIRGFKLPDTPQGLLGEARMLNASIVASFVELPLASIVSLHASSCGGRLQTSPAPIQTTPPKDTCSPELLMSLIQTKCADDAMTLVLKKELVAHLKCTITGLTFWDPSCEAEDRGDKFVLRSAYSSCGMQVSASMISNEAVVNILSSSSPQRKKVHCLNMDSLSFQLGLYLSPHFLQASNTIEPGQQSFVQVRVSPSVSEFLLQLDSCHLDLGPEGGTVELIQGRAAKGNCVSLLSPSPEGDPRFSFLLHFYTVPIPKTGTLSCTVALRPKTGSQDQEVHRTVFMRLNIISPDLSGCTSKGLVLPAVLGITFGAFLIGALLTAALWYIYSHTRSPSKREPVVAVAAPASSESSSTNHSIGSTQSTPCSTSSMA

- EVT outgrowth and migration (EVT outgrowths/villous tip), 24 h after addition (day 2 of culture) (EVT outgrowths/villous tip): 2.03
- concentration of maximal stimulation of EVT outgrowth: 1 µg/mL
- fibronectin (FN) synthesis by villous explants, fold increase relative to control: 8 fold
Substance: Murine monoclonal antibody (MAb) 44G4 specific for human endoglin
